Here are results for 1 molecule from patent US7439017B2, “Assays for measuring nucleic acid binding proteins and enzyme activities” (BioVeris Corporation, priority 1998, dated 2008).

For the assay, the system named is RuBpy-labeled Sheep anti-mouse IgG coated beads. Description: ECL-based assay for the measurement of protease activity. The class given is biochemical. The following applies: in words, 30 minutes at 37° C., solution phase, FIG. 9. How it is done:
This assay system consists of a ruthenylated (RuBpy-labeled) substrate immobilized on paramagnetic beads and the enzyme of interest. The RuBpy label is released by the action of the enzyme. The ECL of the free label is measured using the ORIGEN Analyzer (IGEN International).
Dynabead® M280 Sheep anti-mouse IgG coated beads (IGEN International, Inc.) were RuBpy-labeled at a 200:1 challenge ratio of RuBpy to IgG to introduce RuBpy groups on the immobilized IgG molecules. The labeling was carried out using a derivative of RuBpy linked to an NHS ester (TAG-NHS, IGEN International) according to established procedures. The beads were then washed three times, thirty minutes each, at 4° C. with equal volumes of PBS, pH 7.8, and once overnight at 4° C. Replicate test samples were prepared with 100 μl of solutions containing known amounts of Proteinase K (Sigma) in phosphate buffered saline, pH 7.8 and 25 μl of 1.2 mg/ml TAG labeled Sheep anti-mouse beads. […] The reaction was quenched by the addition of 1 mL of a solution containing tripropylamine (ORIGEN Assay Buffer, IGEN International, Inc.) and the protease activity was quantitated on the ORIGEN 1.5 Analyzer with the solution phase default settings (i.e., the beads are kept in suspension so as to preferentially measure ECL at the electrode from RuBpy groups in solution) except for high vortex speed.

B1: Proteinase K: Proteinase K (Sigma), protease measured in the ECL assay (protein, UniProt P06873 106-384, looked up)
Proteinase K: AAQTNAPWGLARISSTSPGTSTYYYDESAGQGSCVYVIDTGIEASHPEFEGRAQMVKTYYYSSRDGNGHGTHCAGTVGSRTYGVAKKTQLFGVKVLDDNGSGQYSTIIAGMDFVASDKNNRNCPKGVVASLSLGGGYSSSVNSAAARLQSSGVMVAVAAGNNNADARNYSPASEPSVCTVGASDRYDRRSSFSNYGSVLDIFGPGTSILSTWIGGSTRSISGTSMATPHVAGLAAYLMTLGKTTAASACRYIADTANKGDLSNIPFGTVNLLAYNNYQA
Take B1: the “ECL signal as a function of the concentration of enzyme” value is given as “directly related to the concentration of enzyme”.
